From US20020037288A1

What was measured:
[1] = biological target: HM1.24 antigen protein (human); assay: FCM, indirect method, 25 ug/ml antibody; JM cells (T cell line)
[2] = biological target: HM1.24 antigen protein (human); assay: FCM, indirect method, 25 ug/ml antibody; MOLT-4 cells (T cell line)
[3] = biological target: HM1.24 antigen protein (human); assay: FCM, indirect method, 25 ug/ml antibody; KT-3 cells (T cell line)
[4] = biological target: HM1.24 antigen protein (human); assay: FCM, indirect method, 25 ug/ml antibody; CCRF-SB cells (B cell line)
[5] = biological target: HM1.24 antigen protein (human); assay: FCM, indirect method, 25 ug/ml antibody; SKW 6.4 cells (B cell line)
[6] = biological target: HM1.24 antigen protein (human); assay: FCM, indirect method, 25 ug/ml antibody; CCRF-HSB-2 cells (T cell line)
[7] = biological target: HM1.24 antigen protein (human); assay: FCM, indirect method, 25 ug/ml antibody; RPMI 6410 cells (B cell line)
[8] = biological target: HM1.24 antigen protein (human); assay: FCM, indirect method, 25 ug/ml antibody; RPMI 8402 cells (T cell line)
[9] = biological target: HM1.24 antigen protein (human); assay: FCM, indirect method, 25 ug/ml antibody; MT-1 cells (T cell line)
[10] = biological target: HM1.24 antigen protein (human); assay: FCM, indirect method, 25 ug/ml antibody; CESS cells (B cell line)
[11] = biological target: HM1.24 antigen protein (human); assay: FCM, indirect method, 25 ug/ml antibody; Jijoye cells (B cell line)
[12] = biological target: HM1.24 antigen protein (human); assay: FCM, indirect method, 25 ug/ml antibody; Jurkat cells (T cell line)
[13] = biological target: HM1.24 antigen protein (human); assay: FCM, indirect method, 25 ug/ml antibody; MC116 cells (B cell line)
[14] = biological target: HM1.24 antigen protein (human); assay: FCM, indirect method, 25 ug/ml antibody; HPB-MLT cells (T cell line)
[15] = biological target: HM1.24 antigen protein (human); assay: FCM, indirect method, 25 ug/ml antibody; HPB-ALL cells (T cell line)
[16] = biological target: HM1.24 antigen protein (human); assay: FCM, indirect method, 25 ug/ml antibody; CCRF-CEM cells (T cell line)
[17] = biological target: HM1.24 antigen protein (human); assay: FCM, indirect method, 25 ug/ml antibody; EB-3 cells (B cell line)

mouse anti-HM1.24 monoclonal antibody showed a percentage of HM1.24 antigen-positive cells (Expression rate) [1] of 99.6%, a percentage of HM1.24 antigen-positive cells (Expression rate) [2] of 84.1% and a percentage of HM1.24 antigen-positive cells (Expression rate) [3] of 96%. It also gave a percentage of HM1.24 antigen-positive cells (Expression rate) [4] of 98.4%, a percentage of HM1.24 antigen-positive cells (Expression rate) [5] of 92.8% and a percentage of HM1.24 antigen-positive cells (Expression rate) [6] of 100%. The percentage of HM1.24 antigen-positive cells (Expression rate) [7] was 94.5%, the percentage of HM1.24 antigen-positive cells (Expression rate) [8] was 94% and the percentage of HM1.24 antigen-positive cells (Expression rate) [9] was 95.9%. The percentage of HM1.24 antigen-positive cells (Expression rate) [10] was 94.5%, the percentage of HM1.24 antigen-positive cells (Expression rate) [11] was 92.3% and the percentage of HM1.24 antigen-positive cells (Expression rate) [12] was 70.9%. It also gave a percentage of HM1.24 antigen-positive cells (Expression rate) [13] of 65%, a percentage of HM1.24 antigen-positive cells (Expression rate) [14] of 94.6% and a percentage of HM1.24 antigen-positive cells (Expression rate) [15] of 63.8%. For the same substance, the percentage of HM1.24 antigen-positive cells (Expression rate) [16] was 97.8% and the percentage of HM1.24 antigen-positive cells (Expression rate) [17] was 88.3%.
